The source of these data is patent publication US9809645B2, “Anti-Staphylococcus antibody, method for manufacturing same, and usage of same” (priority 2013, dated 2017).

Where a name gives a salt, the structure may show the parent alone.

Assay [1] deals with Staphylococcus aureus strain MW2. Kind of assay: Community-acquired MRSA mouse pneumonia model, therapeutic. In kind it is in vivo. The conditions noted are these: 1 mg into tail vein three days after nasal infection with 4×10^8 cells MW2; lungs five days after infection; BALB/c mice; compared to PBS group; Wilcoxon rank sum test; FIGS. 10 and 11. As for the experimental part: The Staphylococcus aureus strain MW2 was nasally administered, at 4×10^8 cells/40 μL PBS, to female 7-week-old BALB/c mice to allow the bacteria to infect the lungs. Three days later, 0.2 mL of a test sample (PBS, 1 mg anti-Staphylococcus antibody, 1 mg mouse IgG, 1 mg vancomycin hydrochloride (VCM)) was administered into the tail veins.
Five days after the Staphylococcus aureus administration (two days after the test sample administration), the lungs were extirpated, homogenized, and the resulting suspensions were applied to mannitol salt agar plates. They were cultured for 36 hours at 37° C. The number of colonies that appeared was counted, and was used as the number of lung infecting bacteria.

Assay [2] has the same test system. Description: Community-acquired MRSA mouse sepsis model. The conditions noted are these: 1 mg antibody intraperitoneal with 8×10^8 cells MW2; female BALB/c mice; compared to PBS-administered group; Fisher's exact test; FIGS. 4 and 5. In kind it is in vivo. As for the experimental part: The Staphylococcus aureus strain MW2, at 8×10^8 cells/0.5 mL PBS, and 0.2 mL of a test substance (PBS, 1 mg anti-Staphylococcus antibody, 1 mg mouse IgG) were administered to the peritoneal cavities of female 7-week-old BALB/c mice, and the number of surviving mice was determined.

For assay [3] the test system is unchanged. Kind of assay: Community-acquired MRSA mouse pneumonia model, preventive. In kind it is in vivo. The conditions noted are these: 1 mg into tail vein one hour before nasal infection with 4×10^8 cells MW2; lungs four days after infection; BALB/c mice; compared to PBS group; Wilcoxon rank sum test; FIGS. 8 and 9. As for the experimental part: A 0.2 mL portion of a test sample (PBS, 1 mg anti-Staphylococcus antibody, 1 mg vancomycin hydrochloride (VCM)) was administered into the tail vein, and one hour after the administration, the Staphylococcus aureus strain MW2 was nasally administered at 4×10^8 cells/40 μL PBS to female 7-week-old BALB/c mice to infect the lungs. Four days after the infection, the lungs were extirpated, suspended using a homogenizer, applied to mannitol salt agar plates, and cultured for 36 hours at 37° C. The number of colonies that appeared was counted, and was defined as the number of lung infecting bacteria.

Assay [4] has as its system Staphylococcus aureus strain VRS1. Kind of assay: Highly vancomycin-resistant MRSA mouse sepsis model. In kind it is in vivo. The note with it: 1 mg antibody intraperitoneal with 2-3×10^9 cells VRS1; female BALB/c mice; compared to PBS-administered group and VCM-administered group; Fisher's exact test; FIG. 7. On the procedure:
The Staphylococcus aureus strain VRS1, at 2-3×10^9 cells/0.5 mL PBS, and 0.2 mL of a test sample (PBS, 1 mg anti-Staphylococcus antibody, 1 mg mouse IgG, 1 mg vancomycin hydrochloride (VCM)) were administered to the peritoneal cavities of female 7-week-old BALB/c mice, and the number of surviving mice was determined.

Assay [5] has as its system Staphylococcus aureus (protein A knock-out OS2 strain). Description: Staphylococcus aureus solid phase Cell-ELISA (live cells immobilized). In kind it is binding. The note with it: purified antibody; A405; FIG. 2. As for the experimental part:
In order to detect antibodies actually capable of binding to an infectious Staphylococcus capable of growth, the binding of the anti-Staphylococcus antibodies was measured using Staphylococcus aureus solid phase Cell-ELISA in which live cells were immobilized onto a solid phase.
A protein A knock-out OS2 strain was grown in stationary culture for 16 hours at 30° C. in TSB, collected by centrifugation, washed three times using Dulbecco's phosphate buffered saline (-) (hereinafter “PBS”), and adjusted to a concentration of about A600=0.1.
This was dispensed at 100 μL for each well of a 96-well ELISA plate (Nunc, Maxisorp), and the well was left standing for 6 hours at 4° C. to coat the cells. After washing three times with PBS, 300 μL of 1% rabbit serum/PBS was added to each well, and the well was left standing for 16 hours at 4° C. to perform blocking. Furthermore, after washing three times with 0.05% Tween 20/PBS, 100 μL/well of an immunized mouse serum or hybridoma culture supernatant was added to each well, and the well was left standing for 2 hours at 30° C. After washing three times with 0.05% Tween 20/PBS again, 100 μL/well of a goat HRP-labelled F(ab′)2 anti-mouse IgG+IgM (BioSource) or a goat HRP-labelled F(ab′)2 anti-mouse IgG (γ) (KPL) was added as the secondary antibody to each well, and the well was left standing for 2 hours at 30° C. After washing three times with 0.05% Tween 20/PBS, 100 μL/well of ABTS was added to each well as the substrate to allow color to develop, and photometry at A405 was performed using a microplate reader to measure the amount of anti-Staphylococcus antibodies.
The binding affinity between an anti-Staphylococcus antibody and a Staphylococcus was examined by ELTSA reactivity.

For `CN[C@H](CC(C)C)C(=O)N[C@H]1C(=O)N[C@@H](CC(N)=O)C(=O)N[C@H]2C(=O)N[C@H]3C(=O)N[C@H](C(=O)N[C@H](C(=O)O)c4cc(O)cc(O)c4-c4cc3ccc4O)[C@H](O)c3ccc(c(Cl)c3)Oc3cc2cc(c3O[C@@H]2O[C@H](CO)[C@@H](O)[C@H](O)[C@H]2O[C@H]2C[C@](C)(N)[C@H](O)[C@H](C)O2)Oc2ccc(cc2Cl)[C@H]1O` [VCM, vancomycin hydrochloride, reference compound], in assay [1], the “number of lung infecting bacteria (therapeutic)” value (“number … (therapeutic)” below) is reported as “significantly reduced numbers of lung infecting bacteria”.

B1: ZBIA5H: antibody produced by hybridoma NITE BP-1367; heavy and light chain variable regions SEQ ID NOs: 7 and 8 (antibody, listed as Mus musculus, V domains shown)
VH: QIQLVQSGPELKKPGETVKISCKASGYTFTDYSMHWVKQAPGKGLKWMGWINTETGEPTYADDFKGRFAFSLETSASTAYLQINNLKNEDTATYFCARPYYAMDYWGQGTSVTVSS
VL: DIQMTQSPSSLSASLGGKVTITCKASQDINKYIAWYQHKPGKGPRLLIHYTSTLQPGIPSRFSGSGSGRDYSFSISNLEPEDIATYYCLQYDNLLPWTFGGGTKLEIK
Turning to B1, the “life-prolonging effect (number of surviving mice)” value in assay [2] and in assay [4] was “significant life-prolonging effects” throughout. For the same molecule, the “number … (therapeutic)” value in assay [1] is “significantly reduced numbers of lung infecting bacteria”. In assay [3], the “number of lung infecting bacteria (preventive)” value is recorded as “significantly reduced numbers of lung infecting bacteria”. In addition, the “binding affinity to Staphylococcus aureus (ELISA reactivity, grouped by added concentration and reactivity)” value (“binding affinity” below) in assay [5] is “moderate level of binding affinity”.

B2: ZBIA3H: antibody produced by hybridoma NITE BP-1366; heavy and light chain variable regions SEQ ID NOs: 15 and 16 (antibody, listed as Mus musculus, V domains shown)
VH: EVQLVESGGGLVQPKGSLKLSCAASGFTFNTYAMNWVRQAPGKGLEWVARIRSKSNNYATYYADSVKDRFTISRDDSQSMLYLQMNSLKTEDTAMYYCVRRGGNAIYYAMDYWGQGTSVTVSS
VL: QIVLTQSPAIMSASPGEKVTMTCSANSSVSYMHWYQQKSGTSPKAWIYDTSKLASGVPARFSGSGSGTSYSLTISSMEAEDAATYYCQQWSSNPPTFGSGTKLEIK
For B2, the “life-prolonging effect (number of surviving mice)” value in assay [2] and in assay [4] was “significant life-prolonging effects” throughout. Moreover, the “number … (therapeutic)” value in assay [1] is “significantly reduced numbers of lung infecting bacteria”. The “number of lung infecting bacteria (preventive)” value in assay [3] was “significantly reduced numbers of lung infecting bacteria”. The “binding affinity” value in assay [5] is “moderate level of binding affinity”.

B3: ZBIA9H: anti-Staphylococcus monoclonal antibody; CDRs SEQ ID NOs: 17-22, variable regions SEQ ID NOs: 23 and 24 (antibody, listed as Mus musculus, V domains shown)
VH: EVQLVESGGGLVQPKGSLKLSCAASGFTFNTYAMNWVRQAPGKGLEWVARIRSKSNNYATYYADSVKDRFTIFRDDSQSILYLQLNNLKTEDTAMYYCVRRGGNPYYAMDYWGQGTSVTVSS
VL: QIVLSQSPAILSASPGEKVTMTCRASSSVSYMHWYQQKPGSSPKPWIYATSNLASGVPGRFSGSGSGTSYSLTISRVEAEDAATYYCQQWSSNPPTFGGGTKLEIK
With B3, the “binding affinity” value in assay [5] was “moderate level of binding affinity”.
